The numbers were not newly measured in paper PMC2517140, which cites them from elsewhere.

In this data set the target is gp41 trimeric inner core (Human immunodeficiency virus 1) (UniProt O70902).

In general, Kd refers to the equilibrium constant for the complex coming apart. Consider “gp41 outer-layer peptide (from UniProt O70902)”, for which the Kd was 1 nM.
